Laboratory results published in the nanobody polyreactivity screen of Harvey et al. (2022).

Experiment: yeast display, Sf9 membrane polyspecificity reagent, FACS + sequencing; frameworks hold sequencing errors
How it was run: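 Using colony PCR, genes from sorted yeast display clones were amplified, then sequenced on MiSeq at 2 × 250 and filtered by CDR length. The clones had been stained with 10% biotinylated, detergent-solubilized Sf9 membrane reagent for 1 hour at 4 °C and sorted by FACS into low and high (top ~1%) gates on anti-HA and streptavidin fluorescence. Polyreactivity labels come from the gate of origin.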

Row | Sequence | polyreactivity (PSR sort gate)
1 | QVQLVESGGGLVQAGGSLRLSCAASGFSFLAYAMGWYRQAPGKERELVAAINSSDGTTHYADSVKGRFTISRDNAKNTVYLQMNSLKPEDTAVYYCAVSQVRTGEGYHYWGQGTQVTVSS | low polyreactivity
2 | QVQLVESGGGLVQAGCSLRLSCAASGTFGLYAMGWYRQAPGKERELVAAIRARGGSTYYADSVKGRFTISRDNAKNTVYLQMNSLKPEDTAVYYCAAEFWDVSLARKQWYDYWGQGTQVSVSS | high polyreactivity
3 | QVQLVESGGGLAQAGGSLRLRCAASGRTFPSYAMGWYSQAPGKERELVAAISRSGARTYYADSVKGRFTISRDNAKTTVYLQMNSLKPDDTAVYYCAAVGSTRYEYWGQGSQVTVSS | high polyreactivity
4 | QVQLVESGGGLVQAGGSLRLSCAASGRIFSTYAMGWYRQAPGKERELVAAISYSGTTTYYADSVKGRFTISRDNAKNTVYLQLNRLKPEDTAVYYCAAYRYSSWAYGRDYYWGQGTQVTVSS | high polyreactivity
5 | QVQLVESGGGLVQAGGSLRLSCAASGRIFYVYTMGWYRQARGKERELVAAISWSGGSTHYADSVKGRFTISRDNAKNTVYLQMNSLKTEYTAVYYCNKGVVSRVAFEYWGQGTQVTVSS | low polyreactivity
6 | QVQLVESGGGLVQAGGSLRLSCAASGRTIIYNTMGWYRQAPGKEREFVAAINWSGGSTYYADSVKGRFTISRDNAKNTVYLQMNSLKPEDTAVYYCNAEAGYYRPLIYDYWGQGTQVTVSS | low polyreactivity
7 | QVQLVESGGGLVQAGGSLRLSCAASGITVALNAMGWYRQAPGKERELVAAISWSGDSTYYADSVKGRFTISRDNAKNTVYLQMNSLKPEDTAVYYCNTYPRRFFYSQRYDYWGQGTQVTVSS | low polyreactivity
8 | QVQLVESGGGLVQAGGSLRLSSAASGLIFVFYAMGWYRQAPGKERELVAAISTSGDRTYYADSVKGRFTISRDNAKNTVYLQMNSLKPEDTAVYYCAAGRRKVPYSREYYYWGQGTQVTVSS | high polyreactivity
9 | QVQLVESGGGLVQAGGRLRLSCAASGFTFYRYAMGWYRQAPGKERELVAAITDSGDSTYYADSVKGRFTISRDNAKNTVYLQMNSVKPEDTAVYYCNTLVDLDGFEYYYWGQGTQVTVSS | high polyreactivity
10 | QVQLVETAGGLVQARGSLRLSCAASGFIFRYNAMGWYRQERGKERELVAAINYRGGSTYYADSVKGRFTISRDNAKNTVYLQMNSLKPEDTAVYYCAVLTYRGRFEYWGQGTQVTVSS | high polyreactivity
11 | QVQLVESGGGLVQAGGSLSLSCAASGRTFSYYAMGWYRQAPGKERELVAAISRSGSITYYADSVKGRFTISRDNAKNTIYLQMNSLKPEDTAVYYCNADSSRRRYSSDYWGQGTQVTVSS | high polyreactivity
12 | QVQLVESGGGLVQAGGSLRLSCAASGSTFDINAMGWYRQAPGKERELVAAITWRSGRTYYADSVKGRFTISRDNAKNNVYLQMNSLKPEDTAVYYCAADDTSYYIYSYDYWGQGTQVTVSS | low polyreactivity
13 | QVQLVESGGGLVQAGGSLRLSCAASGFTFRYYAMGWYRQAPGKERELVATITTSGGSTYYADSVKGRFTISRDNAKNTVYVQMNSLKPEDTAVYYCAADYYYGRRFRSWRDFNYWGQGTQVTVSS | high polyreactivity
14 | QVQLVESGGGLVQAGGSLRLSCAASGYIFDNNAMGWYRQAPGKERELVAAINWSGGSTYYADSVKGRFTISRDNAKNTVYLQMNSLKPEDTAVYYCNKLIYGIYYPERYAYDYWGQGTQVTVSS | low polyreactivity
15 | QVQLVESGGGLDQAGGSLRLSCAASGRTFYYYAMAWYRQAPRTERELVAAIRRSGSSTYYADSVKGRFTISRDNAKNTVYLQMNSLKPEDTAFYYCAAAVYQRARYYWGQGTQVTVSS | high polyreactivity
16 | QVQLVESGGGLVQEGGSLLISCAASGSIVESYAMGWYRQAPGKEREWVAAITIRGASPYYADSVKGRFTISRDNAKNTVYLQMNSLKPEDTAVYYCNARWPGIGPIYDYWGQGTQVTVSS | low polyreactivity

Row | Sequence | polyreactivity (PSR sort gate)
17 | QVQLVESGGGLVQAGGSHRLSCAASGIIFPWYVMGWYRQAPGKERELVAAITQSGGSTFYADSLKGRFTISRDNAKNTVYLQMNCLKPEDTAVYYCHTEDFFKFPEMDSWGQGTQLTVSS | low polyreactivity
18 | QVQLVESGGGLVQAGGSLRLSCAASGSIFPVYAMGWYRQAPGKERELVATITGSGDSTYADSVKGRFTISRDNAKNTVYLQMNSLKPEDTAVYYCAATTDRAEDDDNIGGYWGQGTQVTVSS | low polyreactivity
19 | QVQLVESGGCLVQAAGRLRLSSAASGSTFYGYAMGWYRQAPGKERQLVAAITVRGGSTYYADSVKGRFTISRDNAKNTVYLQMYSLKPEDTAVYYCNAYIVSGFYVYDYWGQGTQVTVSS | high polyreactivity
20 | QVQLVESGGGLVQAGGSLRLSCAASGFTFSKNTMGWYRQAPGKERELVAVITRGGGTYYADSVKGRFTISRDNAKNTVYLQMNSLKPEDTAVYYCAVKRNTAYRQAYYLDDYWGQGTQVTVSS | high polyreactivity
21 | QVQLVESGGGLVQTGGSLRLSCAASGRILYTNAMGWYRQAPGKERELVAAISSGGRTTYADSVKGRFTISRDNAKNTVYLQMNSLKPEDTAVYYCAAGIRIYGTKRSRGYGYWGQGTQVTVSS | high polyreactivity
22 | QVQLVESGGRLVQAGGSLRLSCAASGRIFWHNAMGWYRQAPGKETELVAAISSRGGSTSYSDSVKGRFTISRDNAKNTVYLQMNSLKPEDTAVYYCAALFRPRVHRYDYWGQGTQVTVSS | low polyreactivity
23 | QVQLVESGGGLVQAGGSLRLSCAASGSIFVGYAMGWYRQAPGKERELVAAISWSGDSTYYADSVKGRFTISRDNAKNTVYLQMNSLKPEDTAVYYCAVDYAEIGPRREVEYDYWGQGTQVTVSS | low polyreactivity
24 | QVQLVESGGGLVQAGGSLRLSCAASGIIFYYYAMGWYRQAPGKERELVAAINWTGGDTYYADSVKGRFTISRDNAKNTVYLQMNSLKPEDTAVYYCNADSFYSYIYDYWGQGTQVTVSS | low polyreactivity
25 | QVQLVESGGGLVQAGGSLRLSCAASGSIFDYNAMGWYRTAPGKERELVAAITGSGGSTYYADSVKGRFTISRDNAKNTVYLQMNSLTQEDTAVYYCAAPVDYRRYEYEYWGQGTQVTLSS | low polyreactivity
26 | QVQLVESGGGLVQAGGSLRLSCAASGSTFRYYTMGWYRQAPGKERELVASISRSGSTSYADSVKGRFTISRDNAKNTVYLLMNSLKPEDTAVYYCARESFFGAYAGYDYWGQGTQVTVSS | low polyreactivity
27 | HVQLVESGGGLVQAGGSLRLSCAASGRTFGIYAMGWYRKAPGKERELVAAITGRGGSTHYADSVKGRFTISRDNAKNTVYLQMNSLKPEDTAVYYCAADYRYNRGITSNKDYDYWGQGTQVTVSS | low polyreactivity
28 | QVQRVESGGGLVQAGASLRLSCSASGSTFYSNAMGWYRQAPGKERELVAAISGSGGRTYYADSVKGRFTISRDNEKKTVYLQMNSLKPEETAVYFCAVERTRSMGYWGQGTQVTVSS | high polyreactivity
29 | QVQLVESGGGLVQAGGSLRLSCAASGRIFRGNAMGWYRQVPGKERELVAAISSGTRTTYADSVKGRFTISRDNAKNTVYLQMNSLKPEDTAVYYCAARTSNYPRWRVGGYSYDYWGQGTQVTVSS | high polyreactivity
30 | QVQLVESGGGLVQAGGSLRLSCAASVIIYLDNAMVWYRQAPRKEMEMVADITSSGGSTYYADSVKGRFTISRDNAKNTVSLQMNSLKPEDTAVYYCAATRPSYNDAESDYWGQGTQVTVSS | low polyreactivity
31 | QVQLVESGGGLVQAGGSLRLSCAASGRIFRTNAQGWYRQAPGKERELVAAITRGGTTNYADSVKGRFTISRDNAKNTVYLQMNSLKPEDTAVYYCATRLSGWRYYLARYDYWGQGTQVTVSS | low polyreactivity
